Data published in PMC12963305.

Biological target: EmER1, EGF receptor of Echinococcus multilocularis, extracellular region in the MALAR-Y2H receptor vector (Echinococcus multilocularis)

human EGF, extracellular domain in the MALAR-Y2H ligand vector (from UniProt P01133 23-1032)
germinal vesicle breakdown (GVBD) of Xenopus oocytes expressing EmER1 from cRNA, stimulated by 50 nM recombinant human EGF, counted after 15 h: 30%
